Assays:
[1] = target: cobalamin binding domains of Thermus thermophilus CarH (TtCBD) (Thermus thermophilus); experiment: crystal structure
[2] = target: cobalamin binding domains of Thermus thermophilus CarH (TtCBD) (Thermus thermophilus); experiment: time-resolved X-ray solution scattering

stoichiometry N [1]: 4 | stoichiometry N [2]: 4 | time constant of tetramer dissociation after photoexcitation [2]: 620 ms
Substance: cobalamin binding domains of Thermus thermophilus CarH (TtCBD) (domain or fragment)

Source: publication doi:10.1101/2025.08.13.669063
